Laboratory results taken from patent EP4410371A1 (Max-Planck-Gesellschaft zur Förderung der Wissenschaften …, dated 2024).
Numbering of substitutions follows the chain as printed.

B1: VHH antibody Ma7F02 (VHH)
VHH: QVQLVESGGGLVQAGGSLRLSCTVSGSIDSLHTMGWFRQAPGKKRDFVAVVSWSGGNTYYPDYAKGRFTISRDNTKNTVYLQMNSLKPEDTAIYYCAAESGSGNYWKIWEHEFDSWGQGTQVTVSS
B2: VHH antibody Ma7C02 (VHH)
VHH: QVQLVESGGGLVQAGGSLRLSCAASGRTFSDYAMGWFRQAAGKDRDFVAVITRSGDSTYYPDSTKGRFTISRDNAKNTMYLQMNSLKPEDTARYYCAATDPTNYWRIWEHEFDYWGQGTQVTVSS
B3: VHH antibody Ma7A07 (VHH)
VHH: QVQLVESGGGLVQPGGSLRLSCAASGFTLGDYTLGWFRQAPGKQREGVSSIASSALSIYIADSVKGRFTISRDDAKNTIYLHMNNLKPEDTGVYYCARGVDSWRWVPSAMDLWGKGTLVTVSS
B4: VHH antibody Ma7B12 (VHH)
VHH: B3 VHH with D74N, I79V, V100I, S102N, L118Q
B5: VHH antibody Ma7B03 (VHH)
VHH: B3 VHH with G30S, D31N, T33Y, L34V, A52G, A55D, D74N, E89D, V100T, L118Q
B6: VHH antibody Ma7A08 (VHH)
VHH: B3 VHH with R19T, A55V, I58V
B7: VHH antibody Ma8E03 (VHH)
VHH: QVQLVESGGGLVHPGGSLRLSCAASGSSLDHYVIGWFRQVPGKEREGVSCISRSGGSTNYADSVKGRFTVSRDNVKNMVYLQMNSLEPEDSAEYYCAAQRNLGNFCVLGWLEYDDWGQGTQVTVSS
B8: VHH antibody Ma8G02 (VHH)
VHH: B7 VHH with H13L, V40Y, L111V
B9: VHH antibody Ma7B01 (VHH)
VHH: QVQLVESGGGLVQAGDSLSLSCAASGRTFSNYAMGWFRQAPGKERHFVAVINQIGDSTWYPDFAKGRFTISRDNAKNTLYLQMNSLKPEDTAVYYCAATDPRSYWRIWPHEYGYWGQGTQVTVSS
B10: VHH antibody Ma7E01 (VHH)
VHH: B9 VHH with L11S, A23V, G26E, Q53P, D56E, S57E, P109E, Y112F, G113D
B11: VHH antibody Ma7C11 (VHH)
VHH: QVQLVESGGGLVRAGGSLRLSCAASGSISSVNGMGWFRQAPGKERLFVAQVSLLDSSTYYADSVKGRFTISRDDAKNTMYLQMNNVRPEETAVYYCAATKLRIGTAFSSEYDYWGQGTQVTVSS
B12: VHH antibody Ma8H03 (VHH)
VHH: QVQLVESGGGLVHPGGSLRLSCAASGSSLDHYVIGWFRQVPGKQREGISCISSGGSTNYADSVKGRFTVSRDNVKSTVYLQMNSLAPDDSAEYYCAAQRNLGNFCVLGWLEYDDWGQGTQVTVSS
B13: VHH antibody Ma8A05 (VHH)
VHH: QVQLVESGGGLVQPGGSLRLSCAASPASGFTLDLYTIAWFLQAPGKEREGVSAISLSDEITYYSDAVKGRFTISRDSAKNTVFLQMDRLKPEDTGVYYCAIGAFDFILKEADADYWGQGTQVTVSS
B14: VHH antibody Ma8D05 (VHH)
VHH: B13 VHH with A66T
B15: VHH antibody Ma7D06 (VHH)
VHH: QVQLVESGGGLVQAGGSLRLSCAASGSISGIDTMAWFRQIPGKDREFVAVIKWAAGSTWYPDFVKGRFTVSRDNAKNMVYLQMDSVKPEDTAIYYCAAAAGEKYYYRLFPYEYDYWGQGTQVTVSS
B16: VHH antibody Ma8D07 (VHH)
VHH: QVQLVESGGGLVQPGGSLRLSCAASESIYKLNAMGWYRQAPGKELELVTTISSGGSTFYTDPVKGRFTISTDNAKNTVYLQMRSLKPEDTAMYYCAANPTYNHYSARGQGTQVTVSS
B17: VHH antibody Ma8D08 (VHH)
VHH: B16 VHH with L11F, P14A

What follows are binders tested against T1, Cys-HLA used for Octet assays following biotinylation at the N-terminal ectopic cysteine (Staphylococcus aureus, UniProt P09616 27-319) (assay: BLI (Octet), biotinylated HLA on streptavidin sensors).
Work on B1 yielded a Kd of about 50 pM.

Each binder was assayed against T1, Cys-HLA used for Octet assays following … (assay: not given).
Work on B2 yielded a Kd of 90 pM.
With B3 the Kd was at most 10 pM.
B4 showed a Kd of at most 10 pM.
B5 showed a Kd of at most 10 pM.
B6 was tested, and the Kd was at most 10 pM.
For B1, the Kd was 40 pM.
B7 was tested, and the Kd was at most 10 pM.
Work on B8 yielded a Kd of at most 10 pM.
With B9 the Kd was 50 pM.
B10 showed a Kd of at most 10 pM.
Binder B11 has a Kd of 300 pM.
With B12 the Kd was at most 10 pM.
In the case of B13, the Kd is reported as 600 pM.
With B14 the Kd was 1000 pM.
For B15, the Kd was 60 pM.
For B16, the Kd was 800 pM.
In the case of B17, the Kd is reported as 1000 pM.
